Measured values: PMC2956967, “Cytochrome P450 102A2 Catalyzes Efficient Oxidation of Sodium Dodecyl Sulphate: A Molecular Tool for Remediation” (Enzyme Research, 2010)

T1: CYP102A2 (Bacillus subtilis, UniProt O08394)
T1 construct: gene cypD; full-length heme-diflavin reductase fusion, about 119 kDa per active site; PCR from genomic DNA, pCR T7/CT-TOPO, E. coli BL21(DE3); untagged enzyme and C-terminal 6His version both made, said kinetically alike
T1 sequence (O08394 1-1061): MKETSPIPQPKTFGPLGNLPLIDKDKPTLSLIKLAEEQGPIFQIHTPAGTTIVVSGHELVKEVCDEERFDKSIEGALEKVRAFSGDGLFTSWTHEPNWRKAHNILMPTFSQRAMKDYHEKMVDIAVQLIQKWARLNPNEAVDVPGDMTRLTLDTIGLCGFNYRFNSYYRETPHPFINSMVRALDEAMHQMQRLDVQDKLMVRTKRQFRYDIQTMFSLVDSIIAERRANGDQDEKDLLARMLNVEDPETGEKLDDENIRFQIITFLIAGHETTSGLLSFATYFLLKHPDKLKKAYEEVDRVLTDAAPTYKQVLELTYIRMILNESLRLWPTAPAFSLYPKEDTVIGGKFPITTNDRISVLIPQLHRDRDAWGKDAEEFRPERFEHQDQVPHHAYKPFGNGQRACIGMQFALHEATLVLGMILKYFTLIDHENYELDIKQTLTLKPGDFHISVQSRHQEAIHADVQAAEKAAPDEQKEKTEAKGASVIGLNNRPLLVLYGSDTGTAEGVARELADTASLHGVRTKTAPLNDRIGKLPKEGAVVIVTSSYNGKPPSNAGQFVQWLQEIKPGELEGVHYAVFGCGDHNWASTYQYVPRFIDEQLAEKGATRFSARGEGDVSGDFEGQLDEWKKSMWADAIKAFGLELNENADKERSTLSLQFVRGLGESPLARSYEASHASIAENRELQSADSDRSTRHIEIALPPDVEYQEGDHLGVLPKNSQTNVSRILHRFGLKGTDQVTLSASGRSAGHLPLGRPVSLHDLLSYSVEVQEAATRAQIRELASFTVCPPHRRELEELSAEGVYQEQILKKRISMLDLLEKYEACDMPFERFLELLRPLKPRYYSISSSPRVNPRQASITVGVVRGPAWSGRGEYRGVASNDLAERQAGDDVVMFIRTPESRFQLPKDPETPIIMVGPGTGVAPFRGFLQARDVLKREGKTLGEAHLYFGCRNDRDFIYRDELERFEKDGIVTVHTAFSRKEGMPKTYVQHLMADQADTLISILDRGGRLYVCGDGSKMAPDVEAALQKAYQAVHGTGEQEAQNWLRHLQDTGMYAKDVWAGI

B1: CYP102A2 (Bacillus subtilis subsp. subtilis str. 168) (protein)
chain: T1 sequence (O08394 1-1061)
notes: full-length heme-diflavin reductase fusion, about 119 kDa per active site; PCR from genomic DNA, pCR T7/CT-TOPO, E. coli BL21(DE3); untagged enzyme and C-terminal 6His version both made, said kinetically alike

Experiments:
[1] = molecular target: T1, CYP102A2; experiment: product inhibition, NADPH oxidation at […] nm; type: biochemical
[2] = substrate: CCCCCCCCCCCCOS(=O)(=O)O; experiment: purified protein; type: biochemical, Bacillus subtilis; details: 0.1 mM NADPH, 0.1 M potassium phosphate pH 7.2, 37 °C, SDS 0.34-1.73 mM, sigmoidal, nH 5.7
[3] = substrate: CCCCCCCCCCCC(=O)O; experiment: purified protein; type: biochemical, Bacillus subtilis; details: NADPH co-substrate, 0.1 M potassium phosphate pH 7.2, 37 °C, sigmoidal, nH 8.7
[4] = substrate: NC(=O)C1=CN([C@@H]2O[C@H](COP(=O)(O)OP(=O)(O)OC[C@H]3O[C@@H](n4cnc5c(N)ncnc54)[C@H](OP(=O)(O)O)[C@@H]3O)[C@@H](O)[C@H]2O)C=CC1; experiment: purified protein; type: biochemical, Bacillus subtilis; details: 1.735 mM SDS co-substrate, 0.1 M potassium phosphate pH 7.2, 37 °C, NADPH 6.6-100 μM

| Molecule | Ki [1] [µM] | K0.5 [2] [mM] | Vmax [2] [µmol/min] | K0.5 [3] [mM] | Vmax [3] [µmol/min] | Km [4] [µM] | kcat [4] [s⁻¹] | kcat/Km [4] [M⁻¹ s⁻¹] |
| --- | --- | --- | --- | --- | --- | --- | --- | --- |
| NC(=O)c1ccc[n+]([C@@H]2O[C@H](COP(=O)(O)OP(=O)(O)OC[C@H]3O[C@@H](n4cnc5c(N)ncnc54)[C@H](OP(=O)(O)O)[C@@H]3O)[C@@H](O)[C@H]2O)c1 [NADP^+] | 100 | – | – | – | – | – | – | – |
| B1 | – | 1.22 ± 0.04 | 0.18 | 0.47 ± 0.005 | 0.088 | 8.30 ± 0.62 | 2.05 ± 0.05 | 250000 |
